Numbering of substitutions follows the chain as printed.
B1: IgG1-DR4-FERR (antibody, V domains shown)
VH: QVQLQESGPGLVKPSGTLSLTCAVSGGSISSYSWWSWIRQPPGKGLEWIGELYHSGSTNYNPSLKSRVTISVDKSKNQFSLKLRSVTAADTAVYYCVRGVATIDYWGQGTLVTVSS
VL: QSALTQPPSASGSPGQSVTISCTGTSSDVGGYNFVSWYQQDPGKAPKLLIYEVTKRPSGVPDRFSGSKSGNTASLTVSGLQAEDEADYYCSSYAGSNNVMFGGGTKLTVLG
notes: Bivalent monoclonal IgG1 lambda
B2: BisG1-FAPα-FERL/b12-FERR (bispecific antibody, human IgG1, kappa)
heavy 1: EVQLLESGGGLVQPGGSPRLSCEASGFTFSSYALSWVRQAPGKGLEWVSAISGSGGGRYYADSVKGRFTISRDNSKNTLFLQMNSLRAEDTAVYYCAKEGYSSSGTYWDHWGQGTLVTVSSASTKGPSVFPLAPSSKSTSGGTAALGCLVKDYFPEPVTVSWNSGALTSGVHTFPAVLQSSGLYSLSSVVTVPSSSLGTQTYICNVNHKPSNTKVDKRVEPKSCDKTHTCPPCPAPEFERGPSVFLFPPKPKDTLMISRTPEVTCVVVDVSHEDPEVKFNWYVDGVEVHNAKTKPREEQYNSTYRVVSVLTVLHQDWLNGKEYKCKVSNKALPAPIEKTISKAKGQPREPQVYTLPPSREEMTKNQVSLTCLVKGFYPSDIAVEWESNGQPENNYKTTPPVLDSDGSFLLYSKLTVDKSRWQQGNVFSCSVMHEALHNHYTQKSLSLSPG
light 1: AIQMTQSPSSVSASVGDRVTITCRASQGVSSWLAWYQQKPGRAPKLLIYVASTLQSGVPSRFSGSGSGTDFTLTINSLQPEDFATYYCQQANSFPPTFGQGTRLEMKRTVAAPSVFIFPPSDEQLKSGTASVVCLLNNFYPREAKVQWKVDNALQSGNSQESVTEQDSKDSTYSLSSTLTLSKADYEKHKVYACEVTHQGLSSPVTKSFNRGEC
heavy 2: QVQLVQSGAEVKKPGASVKVSCQASGYRFSNFVIHWVRQAPGQRFEWMGWINPYNGNKEFSAKFQDRVTFTADTSANTAYMELRSLRSADTAVYYCARVGPYSWDDSPQDNYYMDVWGKGTTVIVSSASTKGPSVFPLAPSSKSTSGGTAALGCLVKDYFPEPVTVSWNSGALTSGVHTFPAVLQSSGLYSLSSVVTVPSSSLGTQTYICNVNHKPSNTKVDKRVEPKSCDKTHTCPPCPAPEFERGPSVFLFPPKPKDTLMISRTPEVTCVVVDVSHEDPEVKFNWYVDGVEVHNAKTKPREEQYNSTYRVVSVLTVLHQDWLNGKEYKCKVSNKALPAPIEKTISKAKGQPREPQVYTLPPSREEMTKNQVSLTCLVKGFYPSDIAVEWESNGQPENNYKTTPPVLDSDGSFFLYSRLTVDKSRWQQGNVFSCSVMHEALHNHYTQKSLSLSPG
light 2: EIVLTQSPGTLSLSPGERATFSCRSSHSIRSRRVAWYQHKPGQAPRLVIHGVSNRASGISDRFSGSGSGTDFTLTITRVEPEDFALYYCQVYGASSYTFGQGTKLERKRTVAAPSVFIFPPSDEQLKSGTASVVCLLNNFYPREAKVQWKVDNALQSGNSQESVTEQDSKDSTYSLSSTLTLSKADYEKHKVYACEVTHQGLSSPVTKSFNRGEC
B3: IgG1-FAPα-FERL (antibody)
heavy: B2 heavy 1
light: B2 light 1
notes: Bivalent monoclonal IgG1 kappa
B4: BisG1-b12-FERL/DR4-FERR (bispecific antibody, human IgG1, kappa, lambda)
heavy 1: B2 heavy 2 with F415L, R419K
light 1: B2 light 2
heavy 2: QVQLQESGPGLVKPSGTLSLTCAVSGGSISSYSWWSWIRQPPGKGLEWIGELYHSGSTNYNPSLKSRVTISVDKSKNQFSLKLRSVTAADTAVYYCVRGVATIDYWGQGTLVTVSSASTKGPSVFPLAPSSKSTSGGTAALGCLVKDYFPEPVTVSWNSGALTSGVHTFPAVLQSSGLYSLSSVVTVPSSSLGTQTYICNVNHKPSNTKVDKRVEPKSCDKTHTCPPCPAPEFERGPSVFLFPPKPKDTLMISRTPEVTCVVVDVSHEDPEVKFNWYVDGVEVHNAKTKPREEQYNSTYRVVSVLTVLHQDWLNGKEYKCKVSNKALPAPIEKTISKAKGQPREPQVYTLPPSREEMTKNQVSLTCLVKGFYPSDIAVEWESNGQPENNYKTTPPVLDSDGSFFLYSRLTVDKSRWQQGNVFSCSVMHEALHNHYTQKSLSLSPG
light 2: QSALTQPPSASGSPGQSVTISCTGTSSDVGGYNFVSWYQQDPGKAPKLLIYEVTKRPSGVPDRFSGSKSGNTASLTVSGLQAEDEADYYCSSYAGSNNVMFGGGTKLTVLGQPKAAPSVTLFPPSSEELQANKATLVCLISDFYPGAVTVAWKADSSPVKAGVETTTPSKQSNNKYAASSYLSLTPEQWKSHRSYSCQVTHEGSTVEKTVAPTECS
notes: Fab-arm exchange of IgG1-b12-FERL and IgG1-DR4-FERR; also called bsIgG1-ctrl-FERLxDR4-FERR

Experiments:
[1] = target: T1, human DR4 (Death Receptor 4), cell surface expressed on human tumor cell lines (human, UniProt O00220 24-468); assay: flow cytometry, A549 cells, n = 2
T1 construct: also called TNFRSF10A; TRAIL-R1
T1 sequence: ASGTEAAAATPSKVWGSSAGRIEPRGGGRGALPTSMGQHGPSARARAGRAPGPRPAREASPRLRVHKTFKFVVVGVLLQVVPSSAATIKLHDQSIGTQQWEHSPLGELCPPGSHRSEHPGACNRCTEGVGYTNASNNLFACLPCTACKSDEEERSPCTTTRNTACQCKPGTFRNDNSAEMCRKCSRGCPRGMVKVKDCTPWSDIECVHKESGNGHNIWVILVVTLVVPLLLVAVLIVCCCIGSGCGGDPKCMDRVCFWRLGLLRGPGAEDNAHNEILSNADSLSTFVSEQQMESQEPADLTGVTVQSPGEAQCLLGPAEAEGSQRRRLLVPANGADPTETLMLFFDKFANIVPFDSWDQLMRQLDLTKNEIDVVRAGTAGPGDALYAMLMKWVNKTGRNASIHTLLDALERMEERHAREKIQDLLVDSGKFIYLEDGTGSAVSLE

[2] = target: T1, human DR4 (Death Receptor 4), cell …; assay: flow cytometry, DLD-1 cells, n = 1
[3] = target: T1, human DR4 (Death Receptor 4), cell …; assay: flow cytometry, DLD-1 cells, n = 2
[4] = target: T1, human DR4 (Death Receptor 4), cell …; assay: flow cytometry, PANC-1 cells, n = 3
[5] = target: T1, human DR4 (Death Receptor 4), cell …; assay: flow cytometry, HCT-116 cells, n = 1
[6] = target: T2, human FAPα (Fibroblast activation protein alpha), cell surface expressed (human, UniProt Q12884 1-760); assay: flow cytometry, human lung fibroblasts, n = 2
T2 construct: Endogenous on human lung fibroblasts and CAFs
T2 sequence: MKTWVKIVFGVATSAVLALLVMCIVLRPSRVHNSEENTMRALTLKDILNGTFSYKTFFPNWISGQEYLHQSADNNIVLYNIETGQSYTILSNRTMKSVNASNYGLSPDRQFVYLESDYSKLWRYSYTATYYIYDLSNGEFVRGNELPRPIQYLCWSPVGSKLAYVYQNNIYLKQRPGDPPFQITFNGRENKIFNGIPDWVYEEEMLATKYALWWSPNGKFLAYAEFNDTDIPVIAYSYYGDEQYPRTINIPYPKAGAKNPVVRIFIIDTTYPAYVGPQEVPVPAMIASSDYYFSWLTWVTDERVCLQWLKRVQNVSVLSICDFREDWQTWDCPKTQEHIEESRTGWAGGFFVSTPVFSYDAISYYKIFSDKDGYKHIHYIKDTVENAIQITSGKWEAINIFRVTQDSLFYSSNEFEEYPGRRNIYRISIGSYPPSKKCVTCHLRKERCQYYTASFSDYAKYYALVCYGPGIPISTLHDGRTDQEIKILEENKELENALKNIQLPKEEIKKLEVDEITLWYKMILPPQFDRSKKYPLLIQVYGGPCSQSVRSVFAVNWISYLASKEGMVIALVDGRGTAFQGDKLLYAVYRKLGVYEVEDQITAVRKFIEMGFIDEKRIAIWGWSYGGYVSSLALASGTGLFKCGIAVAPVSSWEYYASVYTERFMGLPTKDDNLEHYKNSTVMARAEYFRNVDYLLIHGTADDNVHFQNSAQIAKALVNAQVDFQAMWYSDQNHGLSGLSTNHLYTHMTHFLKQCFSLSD
Description: Binding of bispecific or monoclonal antibodies carrying the anti-FAPα arm derived from IgG1-FAPα-FERL (BisG1-FAPα-FERL/DR4-FERR, BisG1-FAPα-FERL/b12-FERR, and IgG1-FAPα-FERL) to cell surface expressed human FAPα was analyzed by flow cytometry using human lung fibroblasts and CAFs, which endogenously express FAPα. BisG1-b12-FERL/b12-FERR was used as negative control.
Human lung fibroblasts and CAFs (50,000 cells/well) were seeded in 96-Well round bottom plates (Greiner Bio-one, Cat #650101). Antibody dilutions were prepared using fluorescence-activated cell sorting (FACS) buffer, consisting of phosphate buffer saline (PBS, Lonza, Cat #BE17-517Q)+1% Bovine Serum Albumin (BSA, Roche, Cat #10735086001)+0.02% Sodium Azide (Bio-World, Cat #41920044-3). Plates were centrifuged, supernatant was removed, cells were resuspended in 50 μL of human Fc Block (BD, Cat #564220, diluted 1:100 in FACS buffer) and 50 μL of viability stain TO-PRO-3 Iodide (Thermo Fisher, Cat #T3605, diluted 1: 25,000 in FACS buffer), and incubated for 15 min at 4° C. Plates were washed three times with FACS buffer. Plates were centrifuged, supernatant was removed, cells were resuspended in 50 μL of antibody dilutions (concentration range 90-0.0005 μg/mL, three-fold dilution steps using FACS buffer) of BisG1-FAPα-FERL/DR4-FERR, BisG1-FAPα-FERL/b12-FERR, BisG1-b12-FERL/b12-FERR (top six concentrations only for CAFs culture) or IgG1-FAPα-FERL (top four concentrations only for CAFs culture) and incubated for 30 min at 4° C. Cells were washed three times with FACS buffer and resuspended in 50 μL of Fluorescein isothiocyanate (FITC)-labeled polyclonal antibody goat anti-mouse IgG1 (Jackson Immuno Research, Cat #109-096-097, diluted 1:100 in FACS buffer). […] Antibody binding to viable cells (TO-PRO-3 negative) was analyzed by flow cytometry on a FACSCelesta™ (BD biosciences) and data were processed using FlowJo_v10.8.1 (FlowJo LLC). Geomean fluorescence intensity, gMFI, was determined and visualized using GraphPad Prism.

| Binder | EC50 [1] | EC50 [2] | EC50 [3] | EC50 [4] | EC50 [5] | EC50 [6] |
| --- | --- | --- | --- | --- | --- | --- |
| B1 | 0.26 µg/mL | 0.33 µg/mL | 0.22 µg/mL | 0.39 µg/mL | 0.22 µg/mL |  |
| B2 |  |  |  |  |  | 0.034 µg/mL |
| B3 |  |  |  |  |  | 0.006 µg/mL |
| B4 | 0.68 µg/mL | 0.85 µg/mL | 0.68 µg/mL | 1.44 µg/mL | 0.51 µg/mL |  |
